± gives the uncertainty stated by the source.
Test: self-splicing fitness, log relative to wild type (ln ratio); higher = more splicing; Tetrahymena group I intron in knt gene, E. coli kanamycin selection, DiMSum; sequences stand for … in CUCUCU…GGAGGGAAAAGUUAUCAGGCAUGCACCUGGUAGCUAGUCUUUAAACCAAUAGAUUGCAUCGGUUUAAAAGGCAAGACCGUCAAAUUGCGGGAAAGGGGUCAACAGCCGUUCAGUACCAAGUCUCAGGGGAAACUUUGAGAUGGCCUUGCAAAGGGUAUGGUAAUAAGCUGACGGACAUGGUCCUAACCACGCAGCCAAGUCCUAAGUCAACAGAUCUUCUGUUGAUAUGGAUGCAGUUCACAGACUAAAUGUCGGUCGGGGAAGAUGUAUUCUUCUCAUAAGAUAUAGUCGGACCUCUCCUUAAUGGGAGCUAGCGGAUGAAGUGAUGCAACACUGGAGCCGCUGGGAACUAAUUUGUAUGCGAAAGUAUAUUGAUUAGUUUUGGAGUACUCGUGGUCG
Method in brief: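 DiMSum derived fitness as the error-weighted combination of fold changes across replicates, kanamycin versus no kanamycin, normalised to wild type. E. coli BL21(DE3) held the library, which randomised all eight P1ex-region intron nucleotides within the knt kanamycin-resistance gene on pET-22b(+). Six replicate transformations grew overnight at 37°C or 30°C on LB agar with or without 25 μg/mL kanamycin, also containing 100 μg/mL carbenicillin, 50 μM IPTG and 0.2% rhamnose, and pooled colonies were amplicon-sequenced on an Illumina HiSeq 2500.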

Row | Sequence | self-splicing fitness (ln) (30 °C) | self-splicing fitness (ln) (37 °C)
1 | AGCAAGCAAUAUUACGCCCU | -2.12 ± 0.26 | -0.679 ± 0.36
2 | AGCAAGCAAUAUUACGCCUG | -3.23 ± 0.27 | -2.54 ± 0.42
3 | AGCAAGCAAUAUUACGCGAG | -3.61 ± 0.16 | -2.87 ± 0.19
4 | AGCAAGCAAUAUUACGCGCC | -3.19 ± 0.34 | -2.46 ± 0.32
5 | AGCAAGCAAUAUUACGCGGG | -3.87 ± 0.21 | -3.71 ± 0.26
6 | AGCAAGCAAUAUUACGCUAG | -4.08 ± 0.25 | -2.1 ± 0.22
7 | AGCAAGCAAUAUUACGCUGA | -2.22 ± 0.14 | -2.07 ± 0.17
8 | AGCAAGCAAUAUUACGCUGU | -2.69 ± 0.12 | -0.265 ± 0.12
9 | AGCAAGCAAUAUUACGCUUU | -2.23 ± 0.17 | -1.55 ± 0.12
10 | AGCAAGCAAUAUUACGGAAG | -3.35 ± 0.25 | -2.32 ± 0.26
11 | AGCAAGCAAUAUUACGGAGU | -2.98 ± 0.13 | -1.6 ± 0.12
12 | AGCAAGCAAUAUUACGGCAU | -0.0513 ± 0.084 | -0.204 ± 0.092
13 | AGCAAGCAAUAUUACGGGGG | -3.78 ± 0.15 | -2.45 ± 0.19
14 | AGCAAGCAAUAUUACGGUCG | -0.327 ± 0.1 | 0.74 ± 0.13
15 | AGCAAGCAAUAUUACGGUGA | -1.88 ± 0.11 | -0.835 ± 0.093
16 | AGCAAGCAAUAUUACGGUUC | -3.75 ± 0.17 | -3.42 ± 0.25
17 | AGCAAGCAAUAUUACGGUUU | -1.28 ± 0.051 | -0.398 ± 0.066
18 | AGCAAGCAAUAUUACGUAAG | -2.47 ± 0.097 | -0.897 ± 0.12
19 | AGCAAGCAAUAUUACGUCAC | -2.89 ± 0.16 | -1.88 ± 0.18
20 | AGCAAGCAAUAUUACGUCGG | -2.93 ± 0.19 | -1.59 ± 0.19
21 | AGCAAGCAAUAUUACGUCGU | -1.72 ± 0.12 | -0.897 ± 0.16
22 | AGCAAGCAAUAUUACGUUGA | -2.95 ± 0.12 | -1.37 ± 0.1
23 | AGCCAGCAAUAUUACGAAAA |  | -1.63 ± 0.24
24 | AGCCAGCAAUAUUACGAACC | -0.758 ± 0.12 | -0.0185 ± 0.11
25 | AGCCAGCAAUAUUACGACAC | -2.83 ± 0.28 | -1.55 ± 0.27
26 | AGCCAGCAAUAUUACGACCU | 0.00818 ± 0.069 | 0.00767 ± 0.083

Row | Sequence | self-splicing fitness (ln) (30 °C) | self-splicing fitness (ln) (37 °C)
27 | AGCCAGCAAUAUUACGACUG | -2.72 ± 0.091 | -1.14 ± 0.095
28 | AGCCAGCAAUAUUACGAUAG | -4.04 ± 0.28 | -2.35 ± 0.24
29 | AGCCAGCAAUAUUACGCCGU | -2.54 ± 0.12 | -1.76 ± 0.13
30 | AGCCAGCAAUAUUACGCGGA | -3.48 ± 0.19 | -2.23 ± 0.12
31 | AGCCAGCAAUAUUACGCGGC | -3.54 ± 0.25 | -3.42 ± 0.31
32 | AGCCAGCAAUAUUACGCGUU | -2.17 ± 0.12 | -0.95 ± 0.12
33 | AGCCAGCAAUAUUACGCUCC | -2.35 ± 0.16 | -2.51 ± 0.21
34 | AGCCAGCAAUAUUACGCUGG | -4.12 ± 0.26 | -2.32 ± 0.26
35 | AGCCAGCAAUAUUACGGACG | 0.121 ± 0.072 | 0.405 ± 0.094
36 | AGCCAGCAAUAUUACGGAUA | -1.63 ± 0.11 | -1.51 ± 0.12
37 | AGCCAGCAAUAUUACGGCAU | -1.31 ± 0.099 | -1.15 ± 0.12
38 | AGCCAGCAAUAUUACGGGCU | -4.03 ± 0.25 | -2.5 ± 0.21
39 | AGCCAGCAAUAUUACGGUGU | -1.99 ± 0.084 | -2.51 ± 0.12
40 | AGCCAGCAAUAUUACGUAGC | -3.01 ± 0.14 | -2.05 ± 0.15
41 | AGCCAGCAAUAUUACGUCAC |  | -2.15 ± 0.44
42 | AGCCAGCAAUAUUACGUGCU | -3.62 ± 0.18 | -2.06 ± 0.21
43 | AGCCAGCAAUAUUACGUUUA | -2.7 ± 0.35 | -2.48 ± 0.38
44 | AGCGAGCAAUAUUACGAAGG | -4.58 ± 0.26 | -2.09 ± 0.15
45 | AGCGAGCAAUAUUACGAGUA | -1.68 ± 0.26 | -1.18 ± 0.29
46 | AGCGAGCAAUAUUACGCAGA | -2.67 ± 0.24 | -2.88 ± 0.24
47 | AGCGAGCAAUAUUACGCGAC | -2.33 ± 0.27 | 
48 | AGCGAGCAAUAUUACGCGAU | -1.78 ± 0.25 | -2.2 ± 0.36
49 | AGCGAGCAAUAUUACGCGGU |  | -2.53 ± 0.32
50 | AGCGAGCAAUAUUACGCUUA | -3.13 ± 0.27 | 0.422 ± 0.17
51 | AGCGAGCAAUAUUACGGACA | -2.53 ± 0.37 | -2.94 ± 0.34
52 | AGCGAGCAAUAUUACGGACG |  | -1.9 ± 0.36

Row | Sequence | self-splicing fitness (ln) (30 °C) | self-splicing fitness (ln) (37 °C)
53 | AGCGAGCAAUAUUACGGCUU | -2.59 ± 0.12 | -2.02 ± 0.21
54 | AGCGAGCAAUAUUACGGGUC | -2.01 ± 0.13 | -2.66 ± 0.25
55 | AGCGAGCAAUAUUACGGUAU | -3.18 ± 0.16 | -2.54 ± 0.22
56 | AGCGAGCAAUAUUACGGUGG | -2.67 ± 0.15 | -2.11 ± 0.25
57 | AGCGAGCAAUAUUACGUAAC | -3.79 ± 0.29 | -1.46 ± 0.24
58 | AGCGAGCAAUAUUACGUAGA | -3.17 ± 0.24 | -2.85 ± 0.29
59 | AGCGAGCAAUAUUACGUGAG | -4.49 ± 0.27 | -2.79 ± 0.19
60 | AGCGAGCAAUAUUACGUGCC | -3.37 ± 0.41 | -0.439 ± 0.22
61 | AGCGAGCAAUAUUACGUGGG | -2.35 ± 0.27 | -3.19 ± 0.35
62 | AGCGAGCAAUAUUACGUGUC | -3.1 ± 0.24 | -2.85 ± 0.22
63 | AGCGAGCAAUAUUACGUUUU | -3.47 ± 0.28 | -1.66 ± 0.22
64 | AGCUAGCAAUAUUACGAAAG | -3.5 ± 0.19 | -2.77 ± 0.25
65 | AGCUAGCAAUAUUACGAACA | -2.24 ± 0.23 | -0.832 ± 0.2
66 | AGCUAGCAAUAUUACGAAUG | -2.09 ± 0.17 | -2.27 ± 0.29
67 | AGCUAGCAAUAUUACGACCU | 0.703 ± 0.17 | -0.166 ± 0.18
68 | AGCUAGCAAUAUUACGACUG | -0.901 ± 0.072 | -0.941 ± 0.12
69 | AGCUAGCAAUAUUACGCAAC | -3.6 ± 0.35 | -1.86 ± 0.32
70 | AGCUAGCAAUAUUACGCACC | -0.833 ± 0.15 | -0.409 ± 0.19
71 | AGCUAGCAAUAUUACGCACU | -1.19 ± 0.1 | -0.466 ± 0.13
72 | AGCUAGCAAUAUUACGCCAC | -3.18 ± 0.32 | -2.45 ± 0.42
73 | AGCUAGCAAUAUUACGCGGU | -4.02 ± 0.27 | -1.71 ± 0.13
74 | AGCUAGCAAUAUUACGCGUU | -2.62 ± 0.091 | -2.11 ± 0.12
75 | AGCUAGCAAUAUUACGGAAC | -2.7 ± 0.2 | -2.38 ± 0.24
76 | AGCUAGCAAUAUUACGUCCG | -1.65 ± 0.23 | -0.915 ± 0.21
77 | AGCUAGCAAUAUUACGUGGA | -3.53 ± 0.2 | -2.04 ± 0.14
